Experimental data as given in patent publication US20260069728A1, “MULTI-TARGETING COMPOUND AND USE THEREOF” (Chengdu Shetai Medical Technology Co., Ltd., priority 2023, published 2026).
Like-named read-outs stand apart in the source and are kept apart here.

Experiments:
[1] = tested on: subcutaneous xenograft tumors (U87 MG cells); test: Small animal PET imaging and biodistribution study; type: in vivo, NSG mice
Experimental: (§1) Eleven NSG mice bearing subcutaneous xenograft tumors (U87 MG cells), with tumor sizes approximately 150 mm^3, were used. The mice were intravenously injected via the tail vein with approximately 7.4 MBq of ^68Ga-labeled SDYD01, SDYD02, SDYD03. SDYD04, SDYD05, SDYD06, SDYD07, SDYD08 or SDYD07-1 compounds, or with ^[…]-labeled FAPI-04 or FAP2286 compounds as tracers. Micro PET/CT imaging was performed at 30 min, 60 min, and 120 min post-injection. Static images were acquired in 3D mode for 20 minutes. Reconstruction was performed using the OSEM3D/MAP method to obtain attenuation-corrected PET/CT fusion images.
(§2) NSG mice bearing subcutaneous xenograft tumors (U87 MG cells) were divided into 3 groups, with 11 mice in each group. They were intravenously injected via the tail vein with ^68Ga-labeled SDYD01, SDYD02, SDYD03. SDYD04, SDYD05, SDYD06. SDYD07, SDYD08, or SDYD07-1 compounds, or with ^68Ga-labeled FAPI-04 or FAP2286 compounds as tracers. Tumor-bearing mice injected with ^68Ga-labeled compounds SDYD01, SDYD02, SDYD03, SDYD04, SDYD05, SDYD06, FAPI-04, as well as 68Ga-labeled compounds FAPI-04 and FAP2286, were euthanized at 30 min. 60 min, and 120 min, respectively, for each group. Tumor-bearing mice injected with ^68Ga-labeled compounds SDYD07, SDYD08, and SDYD07-1 were euthanized at 30 min, 60 min, and 90 min, respectively, for each group. Blood, tumors, and other major organs and tissues were collected, weighed, and measured for radioactivity. After radioactive decay correction, the standardized uptake value (SUV) and percentage injected dose per gram of tissue (% ID/g) were calculated. In these figures, (a) represents the PET/CT imaging results, (b) represents the biodistribution results, and (c) represents the relative ratios of radioactive uptake in tumor versus normal tissues.

[2] = Small animal PET imaging and biodistribution study; type: in vivo, NSG mice; details: NSG, mouse, in vivo, iv, 7.4 MBq, total radioactivity
Experimental: as §1, §2

[3] = Stability of radioligands in PBS buffer (radio-HPLC); type: physicochemical
Experimental: The purpose of this experiment was to test the stability of the radioligands under buffer conditions simulating the physiological environment. This stability is a prerequisite for further animal experiments.
(§3) 1. ^68Ga-SDYD01: ^68Ga-SDYD01 was added to PBS buffer (pH=7.4) and incubated at 37° C. The mixture samples were taken for radio-HPLC analysis after 0.5 hours, 1 hour, and 2 hours of incubation. The stability of ^68Ga-SDYD01 in PBS buffer: the radiochemical purities of ^68Ga-SDYD01 after incubation in PBS for 0.5 hours, 1 hour, and 2 hours were 98%, 97%, and 97%, respectively (FIG. 4).
(§4) 2. ^177Lu-SDYD01: ^177Lu-SDYD01 was added to PBS buffer (pH=7.4) and incubated at 37° C. The mixture samples were taken for radio-HPLC analysis after 24 hours, 48 hours, and 120 hours of incubation. The stability of ^177Lu-SDYD01 in PBS buffer: the radiochemical purities of ^177Lu-SDYD01 after incubation in PBS for 24 hours, 48 hours, and 120 hours were 97%, 96%, and 94%, respectively (FIG. 5).
as §3, with “^68Ga-SDYD02: ^68Ga-SDYD02” for “^68Ga-SDYD01: ^68Ga-SDYD01”, “^68Ga-SDYD02” for “^68Ga-SDYD01”, “96%, 95%” for “98%, 97%,”, “93%,” for “97%,”, “10).” for “4).”
as §4, with “^177Lu-SDYD02: ^177Lu-SDYD02” for “^177Lu-SDYD01: ^177Lu-SDYD01”, “^177Lu-SDYD02” for “^177Lu-SDYD01”, “95%, 91%” for “97%, 96%,”, “87%,” for “94%,”, “11).” for “5).”
as §3, with “1. ^68Ga-SDYD05: ^68Ga-SDYD05” for “1. ^68Ga-SDYD01: ^68Ga-SDYD01”, “of ^68Ga-SDYD05” for “of ^68Ga-SDYD01”, “98%, 96%” for “98%, 97%,”, “and 95%,” for “and 97%,”, “(FIG. 16).” for “(FIG. 4).”
as §4, with “^177Lu-SDYD05: ^177Lu-SDYD05” for “^177Lu-SDYD01: ^177Lu-SDYD01”, “^177Lu-SDYD05” for “^177Lu-SDYD01”, “97%, 96% and” for “97%,”, “96%,” for “96%, and 94%,”, “17).” for “5).”
1. ^68Ga-SDYD06: ^68Ga-SDYD06 was added to PBS buffer (pH=7.4) and incubated at 37° C. The mixture samples were taken for radio-HPLC analysis after 0.5, 1, and 2 hours of incubation. The stability of ^68Ga-SDYD06 in PBS buffer: the radiochemical purities of ^68Ga-SDYD06 after incubation in PBS for 0.5 hours, 1 hour, and 2 hours were 96%, 94% and 93%, respectively (FIG. 22).
2. ^177Lu-SDYD06: ^177Lu-SDYD06 was added to PBS buffer (pH=7.4) and incubated at 37° C. The mixture samples were taken for radio-HPLC analysis after 24 hours, 48 hours, and 120 hours of incubation.
1. ^68Ga-SDYD03: ^68Ga-SDYD03 was added to PBS buffer (pH=7.4) and incubated at 37° C. The mixture samples were taken for radio-HPLC analysis after 0.5 hours, 1 hour, and 2 hours of incubation. The stability of ^68Ga-SDYD03 PBS in PBS buffer: the radiochemical purities of ^68Ga-SDYD03 after incubation in PBS for 0.5 hours, 1 hour, and 2 hours were 96%, 96% and 95%, respectively (FIG. 27).
as §4, with “^177Lu-SDYD03: ^177Lu-SDYD03” for “^177Lu-SDYD01: ^177Lu-SDYD01”, “^177Lu-SDYD03” for “^177Lu-SDYD01”, “are 99%, 96%” for “were 97%, 96%,”, “28). […]” for “5).”

[4] = absolute uptake value in the tumor

| Structure (SMILES) | radioactive uptake in non-target organs (in words) ([1]; mouse, in vivo) | radioactive uptake in the tumor sites (in words) ([1]; mouse, in vivo) | target/non-target ratios (in words) ([1]; mouse, in vivo) | tumor uptake and tumor retention time, comparison (in words) ([1]; mouse, in vivo) | tissue uptake at 0.5 h [2, 4] | tissue uptake at 1 h [2, 4] | tissue uptake at 2 h [2, 4] | stability in PBS buffer (in words) [3] | radioactive uptake in the tumor sites (in words) ([1]; tail vein injection, U87 MG tumor-bearing NSG mice) | tissue uptake at 0.5 h ([2]; 30 minutes post-injection, read-out: absolute uptake value in the tumor) | tissue uptake at 1 h ([2]; 60 minutes post-injection, read-out: absolute uptake value in the tumor) | stability in PBS buffer (in words) ([3]; PBS buffer pH=7.4, 37° C.) |
| --- | --- | --- | --- | --- | --- | --- | --- | --- | --- | --- | --- | --- |
| N#C[C@@H]1CC(F)(F)CN1C(=O)CNC(=O)c1ccnc2ccc(OCCCN3CCN(C(=O)[C@H](CCCCNC(=O)CCN4C(=O)CC(SCC(=O)NCCOCCOCCOCCOCCC(=O)NCCCC[C@@H]5NC(=O)[C@@H](Cc6ccc(O)cc6)NC(=O)[C@H](CC(=O)O)NC(=O)CNC(=O)[C@H](CCCNC(=N)N)NC5=O)C4=O)NC(=O)CCC(C(=O)O)N4CCN(CC(=O)O)CCN(CC(=O)O)CCN(CC(=O)O)CC4)CC3)cc12 (single isomer, unassigned) [^68Ga-SDYD07, metal not drawn] | significantly reduced at 60 minutes | significant radioactive uptake in the tumor sites | significantly increased target/non-target ratios | higher tumor uptake and longer tumor retention time | ≥ 10 %ID/g | ≥ 10 %ID/g | ~10 %ID/g | quite stable in PBS buffer |  |  |  |  |
| CCCCCC(=O)N[C@H]1CSCc2cc(CSCCNC(=O)[C@H](CCCCNC(=O)CCN3C(=O)CC(SCC(=O)NCCOCCOCCOCCOCCC(=O)NCCCC[C@@H]4NC(=O)[C@@H](Cc5ccc(O)cc5)NC(=O)[C@H](CC(=O)O)NC(=O)CNC(=O)[C@H](CCCNC(=N)N)NC4=O)C3=O)NC(=O)CCC(C(=O)O)N3CCN(CC(=O)O)CCN(CC(=O)O)CCN(CC(=O)O)CC3)cc(c2)CSC[C@@H](C(=O)O)NC(=O)[C@H](Cc2ccccc2)NC(=O)[C@H](CCC(N)=O)NC(=O)C([C@@H](C)O)NC(=O)[C@@H]2CCCN2C(=O)[C@@H]2CCCN2C1=O (single isomer, unassigned) [^68Ga-SDYD08, metal not drawn] |  | significant radioactive uptake in the tumor sites |  |  | ≥ 10 %ID/g | ≥ 10 %ID/g |  | quite stable in PBS buffer |  |  |  |  |
| CCCCCC(=O)N[C@@H]1CSCc2cc(CSCCNC(=O)[C@@H](CCCCNC(=O)CN3CCN(CC(=O)O)CCN(CC(=O)O)CCN(CC(=O)O)CC3)NC(=O)COCCOCCNC(=O)COCCOCCNC(=O)CCN3C(=O)CC(SCCNC(=O)CCC(=O)N[C@@H](CCCNC(=N)N)C(=O)N[C@@H](CCCNC(=N)N)C(=O)N[C@@H](Cc4ccc5ccccc5c4)C(=O)N[C@@H]4CSSC[C@@H](C(=O)N[C@@H](CCCNC(=N)N)C(N)=O)NC(=O)[C@H](CCCNC(N)=O)NC(=O)[C@H](CCCNC(=N)N)NC(=O)[C@H](Cc5ccc(O)cc5)NC(=O)[C@@H]5CCCN5C(=O)[C@H](CCCCN)NC(=O)[C@H](CCCCN)NC(=O)[C@H](CCCNC(N)=O)NC(=O)[C@H](Cc5ccc(O)cc5)NC4=O)C3=O)cc(c2)CSC[C@@H](C(=O)O)NC(=O)[C@H](Cc2ccccc2)NC(=O)[C@H](CCC(N)=O)NC(=O)C([C@@H](C)O)NC(=O)[C@@H]2CCCN2C(=O)[C@@H]2CCCN2C1=O (single isomer, unassigned) [^68Ga-SDYD02, metal not drawn] |  | significant radioactive uptake in the tumor sites |  |  | ≥ 10 %ID/g | ≥ 10 %ID/g |  | quite stable in PBS buffer |  |  |  |  |
| CC(C)CC(CC(C)C)NC(=O)[C@H](Cc1cnc[nH]1)NC(=O)CNC(=O)C(NC(=O)[C@H](C)NC(=O)[C@H](Cc1c[nH]c2ccccc12)NC(=O)[C@H](CCC(N)=O)NC(=O)[C@@H](Cc1ccccc1)NC(=O)COCC(=O)Nc1ccc(CNC(=O)COCCOCCNC(=O)COCCOCCNC(=O)[C@H](CCCCNC(=O)CN2CCN(CC(=O)O)CCN(CC(=O)O)CCN(CC(=O)O)CC2)NC(=O)CCC(=O)N2CCN(CCCOc3ccc4nccc(C(=O)NCC(=O)N5CC(F)(F)C[C@H]5C#N)c4c3)CC2)cc1)C(C)C (single isomer, unassigned) [^68Ga-SDYD03, metal not drawn] |  |  |  |  |  |  |  |  | significant radioactive uptake in the tumor sites | ≥ 10 %ID/g | ≥ 10 %ID/g | quite stable in PBS buffer |
| CN1C(=O)[C@@H](Cc2ccc(O)cc2)NC(=O)CNC(=O)[C@H](Cc2ccc3ccccc3c2)NC(=O)[C@H](CCCNC(=N)N)NC(=O)[C@H]1CCCNC(=O)c1ccc(CNC(=O)[C@H](CCCCNC(=O)CN2CCN(CC(=O)O)CCN(CC(=O)O)CCN(CC(=O)O)CC2)NC(=O)CCC(=O)NCCOCCOCC(=O)NCCOCCOCC(=O)N2CCN(CCCOc3ccc4nccc(C(=O)NCC(=O)N5CC(F)(F)C[C@H]5C#N)c4c3)CC2)cc1 [^68Ga-SDYD05, metal not drawn] |  | significant radioactive uptake in the tumor sites |  |  | ≥ 10 %ID/g | ≥ 10 %ID/g |  | quite stable in PBS buffer |  |  |  |  |
